# Source: patent publication US20250042994A1 (HAINAN SIMCERE ZAIMING PHARMACEUTICAL, published 2025)
# T1: human CD19 exon1-3-his protein (human, UniProt P15391 20-186, limits assumed)
# T1 construct: made in HEK293E cells; also called membrane-distal end; not shown: His tag
# T1 sequence (looked up): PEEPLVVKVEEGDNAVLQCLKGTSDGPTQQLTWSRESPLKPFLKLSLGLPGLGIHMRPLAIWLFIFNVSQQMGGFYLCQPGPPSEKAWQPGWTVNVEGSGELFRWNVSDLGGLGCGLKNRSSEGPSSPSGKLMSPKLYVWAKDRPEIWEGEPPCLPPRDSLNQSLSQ
# T2: Human CD19-his protein (human, UniProt P15391 20-291)
# T2 construct: bought protein; also called human CD19 protein; recombinant human CD19-His; not shown: His tag
# T2 sequence (looked up): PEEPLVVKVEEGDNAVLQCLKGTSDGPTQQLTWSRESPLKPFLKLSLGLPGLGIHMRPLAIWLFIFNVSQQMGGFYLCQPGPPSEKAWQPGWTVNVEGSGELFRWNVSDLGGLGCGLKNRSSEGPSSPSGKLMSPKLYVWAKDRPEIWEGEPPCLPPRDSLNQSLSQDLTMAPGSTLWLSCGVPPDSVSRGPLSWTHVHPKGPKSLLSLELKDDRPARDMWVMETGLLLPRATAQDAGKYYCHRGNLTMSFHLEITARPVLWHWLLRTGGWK
# T3: murine CD19 protein (murine, UniProt P25918 17-287, limits assumed)
# T3 construct: bought protein; also called commercial murine CD19
# T3 sequence (looked up): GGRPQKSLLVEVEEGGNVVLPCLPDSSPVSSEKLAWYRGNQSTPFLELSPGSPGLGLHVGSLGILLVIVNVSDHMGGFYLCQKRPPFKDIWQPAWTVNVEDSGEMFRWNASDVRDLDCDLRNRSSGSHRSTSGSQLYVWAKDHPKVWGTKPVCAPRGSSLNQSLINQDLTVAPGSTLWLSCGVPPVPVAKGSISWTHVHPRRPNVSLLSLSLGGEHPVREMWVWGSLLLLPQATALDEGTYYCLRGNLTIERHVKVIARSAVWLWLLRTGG
# Key:
# [1] = biological target: T1, human CD19 exon1-3-his protein; assay: ELISA, coated at 2 ug/mL
# Human CD19-his protein [2] = biological target: T2, Human CD19-his protein; assay: ELISA, antibody at 0.01 nM
# Human CD19-his protein [3] = biological target: T2, Human CD19-his protein; assay: ELISA, antibody at 10 nM
# Human CD19-his protein [4] = biological target: T2, Human CD19-his protein; assay: ELISA on coated human CD19-His
# Description: Human CD19-his protein (purchased from ACROBiosystems, catalog number: CD9-H52H2) was diluted with PBS to a final concentration of 4 μg/mL, and then added to a 96-well ELISA plate at 100 μl/well. The plate was sealed with a plastic film and incubated overnight at 4° C., the plate was washed 2 times with PBS the next day, and then a blocking solution [PBS+2% (w/w) BSA] was added for blocking at room temperature for 2 h. The blocking solution was poured off, and 100 nM gradiently diluted CD19 chimeric antibody or control antibody was added at 50 μl/well. After incubation at 37° C. for 2 h, the plate was washed 3 times with PBS. […] TMB substrate was added at 50 μl/well, and incubated at room temperature for 10 min, and then a stop solution (1.0 N HCl) was added at 50 μl/well. The OD450 nm values were read by an ELISA microplate reader (Multimode Plate Reader, EnSight, purchased from Perkin Elmer).
# murine CD19 protein = biological target: T3, murine CD19 protein; assay: ELISA, coated murine CD19
# Procedure, shortened: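 Plates coated overnight at 4° C with recombinant murine or monkey CD19 and blocked with 2% BSA. Chimeric antibodies, serially diluted from 100 nM, bound for 2 h at 37° C. TMB development for 10 min with OD450 read-out.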
# Human CD19-his protein [5] = biological target: T2, Human CD19-his protein; assay: ELISA, antibody at 100 nM
# Human CD19-his protein [6] = biological target: T2, Human CD19-his protein; assay: ELISA, antibody at 0.001 nM
# Human CD19-his protein [7] = biological target: T2, Human CD19-his protein; assay: ELISA, antibody at 1.00 nM
# Human CD19-his protein [8] = biological target: T2, Human CD19-his protein; assay: ELISA, antibody at 0.10 nM
# Human CD19-his protein [9] = biological target: T2, Human CD19-his protein; assay: ELISA, antibody at 0.0001 nM
Binder,binding result [1],OD450 (Human CD19-his protein [2]),OD450 (Human CD19-his protein [3]),EC50 (read off the curve) (Human CD19-his protein [4]),binding result (murine CD19 protein),OD450 (Human CD19-his protein [5]),OD450 (Human CD19-his protein [6]),OD450 (Human CD19-his protein [7]),OD450 (Human CD19-his protein [8]),OD450 (Human CD19-his protein [9])
"F5.3.6 (antibody, human IgG1, V domains shown, human-murine chimeric antibody, human IgG1) VH: DVQLQESGPGLVKPSQSQSLTCSVTGYSITSGYYWNWIRQFPGNKLEWMGYISYDGSNNYNPSLKNRISITRDTSKNQFFLKLNSVTTEDTVTYYCARAPLTGDRYWYFDVWGTGTTVTVSS VL: DIVLTQSPASLAVSLGQRATISCRASQSVSTSSYSYMHWYQQKPGQTPKLLIKYASNLKSGVPARFSGSGSGTDFTLNIHPVEEEDTATYYCQHSWEIPPTFGGGTKLEIK",no binding,0.09,1.56,~0.4 nM,no binding,1.49,0.06,1.11,0.33,0.05
"F4.15.9 (antibody, human IgG1, V domains shown, human-murine chimeric antibody, human IgG1) VH: QVQLQQSGPELVKPGASVKISCKASGYAFSSSWMNWLKQRPGQGLEWIGRIYPGDGDTNYNGKFKGKATLTADESSSTAYMQLSSLTSVDSAVYFCARGITTIITIAWFASWGQGTLVTVSA VL: QIVLSQSPTILSASPGEKVTMTCRASSSVSYMHWYQQKPGSSPKPWIYATSNLASGVPPRFSGSGSGTSYSLTISRVGAEDAATYYCQQWSSDPWTFGGGTKLEIK",no binding,0.24,1.27,~0.03 nM,no binding,1.35,0.08,1.12,1.06,0.06
"F4.191.1 (antibody, human IgG1, V domains shown, human-murine chimeric antibody, human IgG1) VH: QVQLQQPGAELVRPGASVKLSCKASGYTFTSYWINWVKQRPGQGLEWIGNIHPSDSYTNYNQKFKDKATLTVDKSSSTAYMQFSSPTSEDSAVYYCTREDYYYGSNYDAMDYWGQGTSVTVSS VL: DIVMTQSHKFMSTSVGDRVNITCKASQDVGSSVAWYQQKPGQSPKLLIYWASTRHAGVPDRFTGSGSGADFTLTISNVQSEDLADYFCQQYSTYPLTFGAGTKLELK",no binding,0.13,1.43,~0.2 nM,no binding,1.69,0.06,1.42,0.57,0.05
"F5.2.9 (antibody, human IgG1, V domains shown, human-murine chimeric antibody, human IgG1) VH: QVTLKESGPGILQPSQTLSLTCSFSGFSLSTFGLGVGWVRQPSGKGLEWLAHIWWDDDKYYNPALKSRVTVSKETSKNQVFFKIANVDTADSATYYCARLSRGLRRDVVYAMDHWGQGTSVTVSS VL: DIQMTQTTSSLSASLGDRVTISCRASQDISNYLNWYQQKPDGSVKLLISYVSRLQSGVPSRFRGSGSGTDYSLTISNLDQEDIATYFCQQGIAFPYTFGGGTKLDIK",no binding,0.29,1.76,~0.06 nM,no binding,1.56,0.11,1.55,1.05,0.08
"F4.180.1 (antibody, human IgG1, V domains shown, human-murine chimeric antibody, human IgG1) VH: EVQLQQSAPELVKPGASVKMSCKTSGYTFTENIIHWVKQTHGKSLEWIGGINPDNGGTSYHQKFKGRTTLTIDKSSSTAYMELRSLTSDDSAVFFCARQAPLYWYFDIWGAGTTVTVSS VL: DIVLTQSPASLAVSLGQRATISCRASESVDSYGNSLMHWFQQKPGQPPRLLIYRASNLESGIPARFSGSGSRTDFTLTITPVEADDVATYYCQQSNEDPWTFGGGTKLEIK",no binding,0.12,1.92,~0.2 nM,no binding,2.02,0.06,1.63,0.76,0.05
